Measurements published in article PMC4263166.

Target: Spleen tyrosine kinase (Syk) (UniProt P43405)
Assay: affinity purification of mIgG2a-BCRs with protein A/G agarose beads, anti-Syk immunoblot, band intensity quantified
Details: no inhibitor, Ramos cells

- response (Syk/γ2am (normalized band intensity)) (stimulated for 5 min with polyclonal goat anti-mouse IgG antibodies): 1.7
- response (Syk/γ2am (normalized band intensity)) (unstimulated (0 min α-IgG)): 0.3
Substance: mIgG2a-BCR (wild-type mouse γ2am expressed in Ramos cells, with Igα/β) (from UniProt P11912;P40259) YF
